Laboratory results from US20250289897A1 (Eli Lilly, published 2025).

How the values were obtained:
[1] = target: T1, neonatal Fc receptor (FcRn) on FcRn Affinity Column Gen2 (Roche, Cat #09430857001) (UniProt P55899 24-297; P61769 21-119, limits assumed); assay: FcRn-HPLC (Roche FcRn Affinity Column Gen2), pH gradient 5.5 to 8.8 over 90 minutes
[2] = target: T1, neonatal Fc receptor (FcRn) on FcRn …; assay: FcRn-HPLC (Roche FcRn Affinity Column Gen2), peak width at 50% peak height
[3] = target: T2, Human C1q (MS Biomedical) (human, UniProt P02745 23-245; P02746 28-253; P02747 29-245); assay: C1q ELISA, plate coated with the antibody at 0.19-10 ug/mL, human C1q added at 10 ug/mL, sheep anti-human C1q-HRP detection, OD450
T2 construct: the three subunits are from general knowledge; also called complement component C1q; Clq

CYNO LEPR-ECD-His = target: T3, CYNO LEPR-ECD-His (cynomolgus monkey, UniProt Q9MYL0 22-837 (rhesus entry)); assay: SPR (Biacore T200), antibody captured on Protein A/G chip, His-tagged LEPR-ECD as analyte, 1:1 fit; mean n=4, SD 2.6E-8
T3 construct: also called cynomolgus monkey LEPR
T3 sequence: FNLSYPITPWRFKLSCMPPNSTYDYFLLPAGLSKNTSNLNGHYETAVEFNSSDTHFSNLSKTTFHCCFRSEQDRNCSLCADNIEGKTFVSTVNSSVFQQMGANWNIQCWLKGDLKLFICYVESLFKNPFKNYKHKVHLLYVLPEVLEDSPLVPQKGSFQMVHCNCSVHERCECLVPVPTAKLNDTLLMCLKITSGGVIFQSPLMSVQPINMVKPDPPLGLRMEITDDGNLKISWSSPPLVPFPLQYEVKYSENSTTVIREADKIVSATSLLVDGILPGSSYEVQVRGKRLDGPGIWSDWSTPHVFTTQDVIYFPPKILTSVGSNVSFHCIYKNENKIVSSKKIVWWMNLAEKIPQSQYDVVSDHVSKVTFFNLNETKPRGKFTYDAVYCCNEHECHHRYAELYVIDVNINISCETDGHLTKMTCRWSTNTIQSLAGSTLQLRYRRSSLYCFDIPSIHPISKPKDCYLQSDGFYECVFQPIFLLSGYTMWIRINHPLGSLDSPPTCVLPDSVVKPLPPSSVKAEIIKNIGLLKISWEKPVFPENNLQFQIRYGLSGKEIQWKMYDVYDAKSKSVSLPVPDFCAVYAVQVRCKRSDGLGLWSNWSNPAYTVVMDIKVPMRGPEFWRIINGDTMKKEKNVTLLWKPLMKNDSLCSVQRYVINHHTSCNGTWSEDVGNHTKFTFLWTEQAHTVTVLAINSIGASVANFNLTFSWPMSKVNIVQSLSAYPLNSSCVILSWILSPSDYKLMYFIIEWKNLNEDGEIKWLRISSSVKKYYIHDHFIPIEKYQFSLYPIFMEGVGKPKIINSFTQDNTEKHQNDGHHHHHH

canine LEPR-ECD-His = target: T4, canine LEPR-ECD-His (canine); assay: SPR (Biacore T200), antibody captured on Protein A/G chip, His-tagged LEPR-ECD as analyte; summary sentence of Table 3
T4 chain: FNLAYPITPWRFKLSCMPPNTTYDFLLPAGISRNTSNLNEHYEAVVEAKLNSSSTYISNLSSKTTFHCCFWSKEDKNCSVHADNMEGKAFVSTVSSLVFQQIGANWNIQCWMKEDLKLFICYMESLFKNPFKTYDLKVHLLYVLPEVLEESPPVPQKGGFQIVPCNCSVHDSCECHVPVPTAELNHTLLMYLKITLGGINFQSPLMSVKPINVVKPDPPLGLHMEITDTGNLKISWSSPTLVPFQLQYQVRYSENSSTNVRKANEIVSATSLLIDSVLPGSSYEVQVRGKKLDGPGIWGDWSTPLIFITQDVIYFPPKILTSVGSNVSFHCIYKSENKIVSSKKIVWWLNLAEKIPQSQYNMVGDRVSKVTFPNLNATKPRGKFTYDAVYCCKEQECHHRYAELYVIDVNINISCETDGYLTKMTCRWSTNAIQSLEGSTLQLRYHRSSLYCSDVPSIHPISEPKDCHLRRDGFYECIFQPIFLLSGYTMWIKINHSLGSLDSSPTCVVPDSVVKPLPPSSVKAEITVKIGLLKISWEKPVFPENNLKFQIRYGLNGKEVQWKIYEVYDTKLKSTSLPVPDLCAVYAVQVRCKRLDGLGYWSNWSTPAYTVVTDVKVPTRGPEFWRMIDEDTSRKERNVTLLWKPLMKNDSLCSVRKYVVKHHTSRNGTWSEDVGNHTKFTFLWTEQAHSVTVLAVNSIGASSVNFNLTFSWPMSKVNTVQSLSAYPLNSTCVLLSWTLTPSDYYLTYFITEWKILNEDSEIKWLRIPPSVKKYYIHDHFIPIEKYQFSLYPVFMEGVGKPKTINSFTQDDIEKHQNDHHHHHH

T1 sequence (P55899 24-297 limits assumed, chain 1 of 2): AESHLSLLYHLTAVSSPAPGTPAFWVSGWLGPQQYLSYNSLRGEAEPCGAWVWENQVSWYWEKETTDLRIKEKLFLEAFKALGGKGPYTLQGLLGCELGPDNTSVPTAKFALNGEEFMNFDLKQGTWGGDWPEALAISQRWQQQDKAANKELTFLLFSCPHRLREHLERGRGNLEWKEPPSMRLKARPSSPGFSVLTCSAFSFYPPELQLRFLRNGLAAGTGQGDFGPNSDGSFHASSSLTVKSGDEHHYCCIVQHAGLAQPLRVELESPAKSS
T1 sequence (P61769 21-119 limits assumed, chain 2 of 2): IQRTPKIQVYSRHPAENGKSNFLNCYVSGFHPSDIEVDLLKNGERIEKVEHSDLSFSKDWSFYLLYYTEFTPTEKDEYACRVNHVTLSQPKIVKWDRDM
T2 sequence (P02745 23-245 limits assumed, chain 1 of 3): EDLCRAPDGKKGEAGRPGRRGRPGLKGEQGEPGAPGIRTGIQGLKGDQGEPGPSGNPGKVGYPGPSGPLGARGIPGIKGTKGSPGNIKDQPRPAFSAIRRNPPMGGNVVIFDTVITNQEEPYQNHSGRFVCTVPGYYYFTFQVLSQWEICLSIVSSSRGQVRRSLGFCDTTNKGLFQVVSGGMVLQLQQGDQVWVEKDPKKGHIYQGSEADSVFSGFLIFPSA
T2 sequence (P02746 28-253 limits assumed, chain 2 of 3): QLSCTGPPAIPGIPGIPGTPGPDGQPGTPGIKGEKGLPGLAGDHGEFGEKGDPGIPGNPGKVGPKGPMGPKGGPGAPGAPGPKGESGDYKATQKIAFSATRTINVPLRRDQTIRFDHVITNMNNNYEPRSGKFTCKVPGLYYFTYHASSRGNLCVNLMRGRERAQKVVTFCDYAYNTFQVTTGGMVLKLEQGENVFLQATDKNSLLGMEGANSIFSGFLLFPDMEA
T2 sequence (P02747 29-245 limits assumed, chain 3 of 3): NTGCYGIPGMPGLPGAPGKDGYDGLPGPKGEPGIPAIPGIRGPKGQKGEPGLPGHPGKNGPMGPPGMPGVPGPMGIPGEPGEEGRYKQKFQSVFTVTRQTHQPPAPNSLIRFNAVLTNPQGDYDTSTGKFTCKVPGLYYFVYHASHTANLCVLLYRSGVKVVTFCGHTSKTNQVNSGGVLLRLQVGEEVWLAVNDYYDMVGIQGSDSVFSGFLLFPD

B1: Antibody A (antibody, human IgG1, kappa, L234A L235A)
heavy: EVQLLESGGGLVQPGGSLRLSCAASGFTFSSFAMSWVRQAPGKGLEWVSAISGSGGSTYSADSVRGRFTISRDNSKNTLYLQMNSLRAEDTAVYYCAKDQGDWDFLFDYWGQGTLVTVSSASTKGPSVFPLAPSSKSTSGGTAALGCLVKDYFPEPVTVSWNSGALTSGVHTFPAVLQSSGLYSLSSVVTVPSSSLGTQTYICNVNHKPSNTKVDKRVEPKSCDKTHTCPPCPAPEAAGGPSVFLFPPKPKDTLYITREPEVTCVVVSVSHEDPEVKFNWYVDGVEVHNAKTKPREEQYNSTYRVVSVLTVLHQDWLNGKEYKCKVSNKALPAPIEKTISKAKGQPREPQVYTLPPSREEMTKNQVSLTCLVKGFYPSDIAVEWESNGQPENNYKTTPPVLDSDGSFFLYSKLTVDKSRWQQGNVFSCSVMHEALHNHYTQKSLSLSPGK
light: DIQMTQSPSFLSASVGDRVTITCRASQGISSSLAWYQQKPGKAPKLLIYTASTLQSGVPSRFSGSGSGTEFTLTISSLQPEDFATYYCQQLIYYPFTFGQGTKVEIKRTVAAPSVFIFPPSDEQLKSGTASVVCLLNNFYPREAKVQWKVDNALQSGNSQESVTEQDSKDSTYSLSSTLTLSKADYEKHKVYACEVTHQGLSSPVTKSFNRGEC
notes: IgG1 mAb
With B1 as the binder, how does the “Retention Time” value [1] read?
Its value is 80.1 min.

And the “Peak Width” value [2]?
The value was 2.7 min.

Does B1 bind [3]?
Result: no binding (tested: 10 ug/ml)

B2: Antibody C (antibody, human IgG1, kappa, L234A L235A, V domains shown)
VH: EVQLLESGGGLVQPGGSLRLSCAASGFTFSSFAMSWVRQAPGKGLEWVSAISGSGGSTYSADSVRGRFTISRDNSKNTLYLQMNSLRAEDTAVYYCAKDQGDWDFLFDYWGQGTLVTVSS
VL: DIQMTQSPSFLSASVGDRVTITCRASQGISSSLAWYQQKPGKAPKLLIYTASTLQSGVPSRFSGSGSGTEFTLTISSLQPEDFATYYCQQLNYYPFSFGQGTKVEIKR
Which Kd (CYNO LEPR-ECD-His) does the source give for B2 here?
The Kd was 47 nM.

Does B2 bind (canine LEPR-ECD-His)?
Result: binds
